Assays:
[1] = test system: COS-7/CD74+CD44 cell line; assay: In vitro apoptosis, caspase-3 activity, COS-7 cell lines; format: cell-based; conditions: MIF 100 ng/ml; apoptosis inducers SNP and camptothecin, 24 hrs
Procedure: (§1) Apoptosis Studies. […] Cell lysates were collected, and caspase-3 activity analyzed using a colorimetric assay kit (R&D Systems). Cytoplasmic p53 content was analyzed as described previously (Mitchell et al. (2002). Proc Natl Acad Sci USA 99:345-350) by immunoblotting of mouse cytosolic fractions using a pair of anti-phospho-p53 (Ser15) (R&D Systems) and total anti-p53 antibodies (Cell Signaling); and for COS-7 cells, the anti-p53 (Ser15) and total anti-p53 antibodies (Cell Signaling). In vivo apoptosis studies followed the procedures of (Mitchell et al. (2002). Proc Natl Acad Sci USA 99:345-350), and were conducted after i.p injection of 15 mg/kg lipopolysaccharide (E. coli 0111:B4; Sigma). Mice were sacrificed 24 hrs after priming and the peritoneal macrophage cells collected and immediately analyzed for apoptosis by an ELISA that detects cytoplasmic oligonucleosomes (Roche Diagnostics). Primary macrophages also were immunostained by Alexa 488-conjugated, Annexin V (Invitrogen), and apoptotic cells enumerated by fluorescence microscopy.

p53 [2] = assay: Ser15-phosphorylated p53 content, macrophages; format: cell-based, mouse; conditions: during apoptosis induction
Procedure: as §1

ERK-1/2 [3] = assay: ERK-1/2 phosphorylation in murine embryonic fibroblasts and peritoneal macrophages; format: cell-based; conditions: wild-type, CD74-KO and CD44-KO cells
Procedure: Whole cell lysates then were prepared and analyzed by Western blotting with specific anti-phospho-ERK-1/2 (p-ERK1/2) or anti-total ERK/1/2 antibodies. […] Peritoneal macrophages were stimulated for 10 mins (Mitchell et al. (1999). J Biol Chem 274:18100-6) and the lysates then analyzed by Western blotting. […] Recombinant, sCD74 was incubated with MN overnight in a 3:1 molar ratio prior to addition to cells for 10 mins. Epidermal growth factor (EGF) was used as a positive control for ERK-1/2 phosphorylation (Yamamoto et al. (2003). Develop Biol 260:512-521). Data shown are representative of three experiments.
Signal Transduction Assays. […] The human CD74 ectodomain (CD74^73-232) was prepared recombinantly in soluble form (sCD74) as described previously (Leng et al. (2003). J Exp Med 197:1467-1476). […] Cells then were harvested and lysed in buffer containing 50 mM Hepes, pH7.5, 150 mM NaCl, 1.5 mM MgCl2, 1 mM EGTA, 1% Glycerol and 1% Triton X-100, and freshly added phosphatase and proteinase inhibitors (1 mM orthovanandate, 10 mM NaF, 10 μg/ml leupeptin, 25 μg/ml aprotinin and 50 μg/ml PMSF). For immunoblotting, 15-20 μg of cell lysate proteins were separated by 10% SDS-PAGE and transferred to PVDF Immobilon-P transfer membranes (Millipore). […]

ERK-1/2 [4] = assay: ERK-1/2 phosphorylation in COS-7/M6 stable transformants (Western blot); format: cell-based; conditions: 100 ng/ml
p56^lck = assay: Tyrosine kinase phosphorylation in COS-7/M6 transformants and MEFs (immunoblot); format: cell-based; conditions: only in the cells expressing both CD74 and full-length CD44
Procedure: Cells then were harvested and lysed in buffer containing 50 mM Hepes, pH7.5, 150 mM NaCl, 1.5 mM MgCl2, 1 mM EGTA, 1% Glycerol and 1% Triton X-100, and freshly added phosphatase and proteinase inhibitors (1 mM orthovanandate, 10 mM NaF, 10 μg/ml leupeptin, 25 μg/ml aprotinin and 50 μg/ml PMSF). For immunoblotting, 15-20 μg of cell lysate proteins were separated by 10% SDS-PAGE and transferred to PVDF Immobilon-P transfer membranes (Millipore). The blots were developed with specific primary antibodies that included a pair of anti-phospho-ERK-1/2 (sc-7383, Santa Cruz) and anti-(total) ERK-1/2 (sc-94, Santa Cruz) antibodies, a pair of anti-phospho-p56^lck (Cell Signaling) and anti-(total) p56^lck (sc-433, Santa Cruz) antibodies, or a pair of anti-phospho-Src and anti-(total) Src antibodies (Cell Signaling). The secondary antibodies included anti-mouse IgG or anti-rabbit IgG conjugated with horseradish peroxidase (Cell Signaling). The ECL detection reagents (Amersham) were used to visualize bands.
Cell lysates were collected and analyzed by immunoblots using a pair of anti-phospho-PICA and anti-(total)-PKA antibodies, a pair of anti-phospho-PKC (all from Cell Signaling) and anti-(total)-PKC (Santa Cruz) antibodies, or a pair of anti-phospho-p56^lck (Cell Signaling) and anti-(total) p56^lck (sc-433, Santa Cruz) antibodies.

primary macrophages = assay: In vitro apoptosis, primary macrophages; format: cell-based, mouse; conditions: MIF 100 ng/ml; dependent on CD74 and CD44
From the text: Mice and Primary Cells. Wild-type (BALB/c or C57/B16), CD74-KO, (Shachar et al. (1996). Science 274:106-108), CD44-KO (Teder et al, (2002). Science 296:155-158), and MIF-KO (Bozza et al. (1999). J Exp Med 189:341-346), mice were bred at the Yale Animal Resource Center under strict, pathogen-free conditions. The KO strains were in genetically pure BALB/c or C57/B16 backgrounds (each at generation ≧N10). Mouse embryonic fibroblasts (MEFs) were obtained from 2 week-old embryos as described (Fingerle-Rowson et al. (2003). Proc Natl Acad Sci USA 100:9354-9359). […]
as §1, with “In vivo apoptosis studies followed the procedures of (Mitchell et al. (2002). Proc Natl Acad Sci USA 99:345-350), and were conducted after i.p injection of 15 mg/kg lipopolysaccharide (E. coli 0111:B4; Sigma).” left out

p53 [5] = assay: Cytoplasmic Ser15-phosphorylated p53 content, COS-7 cells; format: cell-based; conditions: during apoptosis induction
Procedure: as §1

erythroid progenitors = assay: Cytotoxicity by Trypan blue exclusion; format: cell-based
Procedure: The human K562 progenitor cell line (ATCC, CCL-243) was cultured in RPMI/10% FBS supplemented with penicillin and streptomycin. For differentiation, sodium butyrate (AldRick, Milwaukee, Wis.) was added in the medium (Witt et al. 2000. Blood 95:2391-2396). Terminal erythropoietic differentiation was measured as described by McGukin et al. (McGuckin et al. 2003. European Journal of Haematology 70:106-114) and positive cells enumerated after staining with 2,7-diaminofluorene (Sigma, St. Louis, Mo.). To quantify hemoglobin synthesis, the cells were centrifuged and washed in PBS, and the cell pellet resuspended in lysis buffer (100 mM potassium phosphate pH 7.8, 0.2% Triton X-100) before disruption by aspiration through a 21-gauge needle. After microcentrifugation, the supernatant was collected and the hemoglobin concentration was determined using the hemoglobin kit from Sigma. Cell viability was assessed by trypan blue dye exclusion and found to be equivalent (85-90% viability) between all samples studied.

B1: MIF: macrophage migration inhibitory factor; recombinant mouse or human MIF purified essentially free of endotoxin (protein)
chain: PMFIVNTNVPRASVPDGFLSELTQQLAQATGKPPQYIAVHVVPDQLMAFGGSSEPCALCSLHSIGKIGGAQNRSYSKLLCGLLAERLRISPDRVYINYYDMNAANVGWNNSTFA
**Q.** With B1 as the molecule, how does the protection from apoptosis [1] read?
**A.** significant protective effect

**Q.** What about the “cellular content of Ser15-phosphorylated p53” value (p53 [2]) of the same molecule?
**A.** diminution in the cellular content

**Q.** What about the ERK-1/2 phosphorylation (ERK-1/2 [3]) of the same molecule?
**A.** induced ERK-1/2 phosphorylation only in wild-type cells

**Q.** And the “time of decay of ERK-1/2 phosphorylation” value (ERK-1/2 [4])?
**A.** 30 min

**Q.** And the ERK-1/2 phosphorylation (ERK-1/2 [4]; cells transfected with CD74, CD44, CD74+CD44 or CD74+CD44^Δ67)?
**A.** induced ERK-1/2 phosphorylation only in those cells expressing both CD74 and full-length CD44

**Q.** What about the “p56^lck phosphorylation” value (p56^lck) of the same molecule?
**A.** phosphorylated by MIF treatment

**Q.** And the protection from apoptosis (primary macrophages)?
**A.** almost complete

**Q.** And the “intracytoplasmic content of Ser15-phosphorylated p53” value (p53 [5])?
**A.** reduction in the intracytoplasmic content

**Q.** And the cytotoxic effects (erythroid progenitors)?
**A.** Neither MIF nor anti-MIF were found to exert cytotoxic effects
